Measured values: patent US20250099634A1, “METHOD OF TREATING CANCER” (Novartis AG, priority 2023, published 2025)

Tests used:
[1] = system: Grade 2 and Grade 3 advanced GEP-NET; experiment: NETTER-2 best overall response, ORR and DCR, central review using RECIST 1.1; type: in vivo, human; conditions: central review, Full Analysis Set
Text: Objective Response Rate (ORR) will be calculated as the rate of patients with a best overall response of partial response (PR) or complete response (CR). Response duration will be calculated from the time of initial response until documented tumor progression. The Duration of Response (DOR) is defined as the time from initially meeting the criteria for response (CR or PR) until the time of progression by RECIST or death due to underlying disease. DOR will be reported descriptively for each group without comparison between groups.
Overall response rate (ORR) is defined as the proportion of subjects with best overall response (BOR) of complete response (CR) or partial response (PR), as per central review and according to RECIST 1.1.
ORR will be calculated based on the FAS and according to the ITT principle. ORR and its 95% confidence interval will be presented by treatment group. The Cochran-Mantel-Haenszel chi-square test, stratified by the randomization stratification factors, will be used to compare ORR between the two treatment groups, at the 1-sided 2.5% level of significance. As a supportive analysis, ORR as per local review will be presented by treatment group, along with 95% confidence intervals.
More precisely, it counts the presence of at least one confirmed CR or confirmed PR or SD. The DCR will be calculated based on FAS according to the ITT principle. DCR and its 95% confidence interval will be presented by treatment group. The Cochrane-Mantel-Haenszel chi-square test, stratified by the randomization stratification factors, will be used to compare DCR between the two treatment groups, at the one-sided 2.5% level of significance. The p-value to be generated using the Cochrane-Mantel-Haenszel chi-square test is considered nominal, and not to be considered confirmatory as it is not part of the testing strategy. The SAP will advise on how to proceed in case of few events in any stratum.

[2] = NETTER-2 serious adverse events in the randomized treatment period (Safety Set)
Text: All adverse events (AEs), whether or not spontaneously reported by the patient, will be recorded starting from the signing of the ICF until the end of the Treatment Phase. Safety summaries (tables, figures) include only data from the on-treatment period with the exception of baseline data which will also be summarized where appropriate (e.g. change from baseline summaries). In addition, a separate summary for death including on treatment and post treatment deaths will be provided. In particular, summary tables for adverse events (AEs) will summarize only on-treatment events, with a start date during the on-treatment period (treatment-emergent AEs).
Separate summaries will be provided for study medication related adverse events, death, serious adverse events, other significant adverse events leading to discontinuation and adverse events leading to dose adjustment.

[3] = in vivo; cited from earlier work
[4] = NETTER-2 subject disposition: discontinuation of randomized treatment phase (Full Analysis Set); type: in vivo, human
Text: The discontinuation of either study treatments in both arms (Lutathera or octreotide long-acting) is not a reason for patient's withdrawal either from the clinical/tumor assessments until tumor progression, or for early study termination. However, in case of a patient's withdrawal from the clinical/tumor assessments or early study termination (based on either the patient's or the Investigator's decision), patients will undergo all exams scheduled for the End of Treatment (EOT) visit.
The Full Analysis Set (FAS) comprises all subjects to whom study treatment has been assigned by randomization. According to the intent to treat principle, subjects will be analyzed according to the treatment and strata they have been assigned to during the randomization procedure.

midgut carcinoid tumors = conditions: NETTER-1, cited from earlier work
[5] = All grades, randomized treatment period, Safety Set
[6] = Grade >=3, randomized treatment period, Safety Set
[7] = randomized treatment period, Safety Set

For C[C@@H](O)[C@H](NC(=O)[C@@H]1CSSC[C@H](NC(=O)[C@@H](Cc2ccccc2)NC(=O)CN2CCN(CC(=O)[O-])CCN(CC(=O)[O-])CCN(CC(=O)[O-])CC2)C(=O)N[C@@H](Cc2ccc(O)cc2)C(=O)N[C@H](Cc2c[nH]c3ccccc23)C(=O)N[C@@H](CCCCN)C(=O)N[C@@H]([C@@H](C)O)C(=O)N1)C(=O)O.[177Lu+3] [Lutathera, ^177Lu-DOTA^0-Tyr^3-Octreotate], the “Best Overall Response: Complete Response (CR)” value [1] was 8 (5.3) n (%), the “Best Overall Response: Non-CR/Non-PD” value [1] was 0 n (%) and the “Best Overall Response: Partial Response (PR)” value [1] was 57 (37.7) n (%). For the same molecule, the “Best Overall Response: Progressive Disease (PD)” value [1] was 8 (5.3) n (%), the “Best Overall Response: Unknown” value [1] was 6 (4.0) n (%) and the “Disease Control Rate (DCR: CR+PR+SD+Non-CR/Non-PD)” value [1] was 137 (90.7) n (%). The “Overall Response Rate (ORR: CR + PR)” value [1] was 65 (43.0) n (%), the “Fatal SAEs” value [2, 5] was 3 (2.0) n (%) and the “Fatal SAEs Related to Amino Acids” value [2, 5] was 0 n (%). The “Fatal SAEs Related to Any Treatment” value [2, 5] was 0 n (%), the “Fatal SAEs Related to Lutathera” value [2, 5] was 0 n (%) and the “Fatal SAEs Related to Octreotide” value [2, 5] was 0 n (%). For the same molecule, the SAEs [2, 5] was 30 (20.4) n (%), the “SAEs Related to Amino Acids” value [2, 5] was 0 n (%) and the “SAEs Related to Any Treatment” value [2, 5] was 8 (5.4) n (%). The “SAEs Related to Lutathera” value [2, 5] was 8 (5.4) n (%), the “SAEs Related to Octreotide” value [2, 5] was 0 n (%) and the “Serious adverse event: Abdominal pain” value [2, 5] was 2 (1.4) n (%). The “Serious adverse event: Abdominal sepsis” value [2, 5] was 0 n (%), the “Serious adverse event: Acute coronary syndrome” value [2, 5] was 0 n (%) and the “Serious adverse event: Acute kidney injury” value [2, 5] was 0 n (%). For the same molecule, the “Serious adverse event: Anaemia” value [2, 5] was 2 (1.4) n (%), the “Serious adverse event: Ascites” value [2, 5] was 1 (0.7) n (%) and the “Serious adverse event: Blood bilirubin increased” value [2, 5] was 2 (1.4) n (%). The “Serious adverse event: Carcinoid heart disease” value [2, 5] was 0 n (%), the “Serious adverse event: Carcinoid syndrome” value [2, 5] was 0 n (%) and the “Serious adverse event: Diarrhoea” value [2, 5] was 1 (0.7) n (%). For the same molecule, the “Serious adverse event: Femur fracture” value [2, 5] was 0 n (%), the “Serious adverse event: Gastroenteritis” value [2, 5] was 0 n (%) and the “Serious adverse event: Gastrointestinal stoma complication” value [2, 5] was 2 (1.4) n (%). The “Serious adverse event: Generalised oedema” value [2, 5] was 0 n (%), the “Serious adverse event: Hip fracture” value [2, 5] was 0 n (%) and the “Serious adverse event: Hyperglycaemia” value [2, 5] was 0 n (%). The “Serious adverse event: Hypertension” value [2, 5] was 0 n (%), the “Serious adverse event: Hypoalbuminaemia” value [2, 5] was 0 n (%) and the “Serious adverse event: Intestinal obstruction” value [2, 5] was 1 (0.7) n (%). The “Serious adverse event: Jaundice” value [2, 5] was 0 n (%), the “Serious adverse event: Lower gastrointestinal haemorrhage” value [2, 5] was 0 n (%) and the “Serious adverse event: Metabolic encephalopathy” value [2, 5] was 0 n (%). For the same molecule, the “Serious adverse event: Oedema peripheral” value [2, 5] was 1 (0.7) n (%), the “Serious adverse event: Pleurisy” value [2, 5] was 0 n (%) and the “Serious adverse event: Pyrexia” value [2, 5] was 2 (1.4) n (%). The “Serious adverse event: Small intestinal obstruction” value [2, 5] was 5 (3.4) n (%), the “Serious adverse event: Tumour lysis syndrome” value [2, 5] was 0 n (%) and the “Serious adverse events: Number of subjects with at least one event” value [2, 5] was 30 (20.4) n (%). For the same molecule, the “Fatal SAEs” value [2, 6] was 3 (2.0) n (%), the “Fatal SAEs Related to Amino Acids” value [2, 6] was 0 n (%) and the “Fatal SAEs Related to Any Treatment” value [2, 6] was 0 n (%). For the same molecule, the “Fatal SAEs Related to Lutathera” value [2, 6] was 0 n (%), the “Fatal SAEs Related to Octreotide” value [2, 6] was 0 n (%) and the SAEs [2, 6] was 24 (16.3) n (%). For the same molecule, the “SAEs Related to Amino Acids” value [2, 6] was 0 n (%), the “SAEs Related to Any Treatment” value [2, 6] was 6 (4.1) n (%) and the “SAEs Related to Lutathera” value [2, 6] was 6 (4.1) n (%). The “SAEs Related to Octreotide” value [2, 6] was 0 n (%), the “Serious adverse event: Abdominal pain” value [2, 6] was 2 (1.4) n (%) and the “Serious adverse event: Abdominal sepsis” value [2, 6] was 0 n (%). The “Serious adverse event: Acute coronary syndrome” value [2, 6] was 0 n (%), the “Serious adverse event: Acute kidney injury” value [2, 6] was 0 n (%) and the “Serious adverse event: Anaemia” value [2, 6] was 1 (0.7) n (%). The “Serious adverse event: Ascites” value [2, 6] was 0 n (%), the “Serious adverse event: Blood bilirubin increased” value [2, 6] was 1 (0.7) n (%) and the “Serious adverse event: Carcinoid heart disease” value [2, 6] was 0 n (%). For the same molecule, the “Serious adverse event: Carcinoid syndrome” value [2, 6] was 0 n (%), the “Serious adverse event: Diarrhoea” value [2, 6] was 0 n (%) and the “Serious adverse event: Femur fracture” value [2, 6] was 0 n (%). For the same molecule, the “Serious adverse event: Gastroenteritis” value [2, 6] was 0 n (%), the “Serious adverse event: Generalised oedema” value [2, 6] was 0 n (%) and the “Serious adverse event: Hip fracture” value [2, 6] was 0 n (%). For the same molecule, the “Serious adverse event: Hyperglycaemia” value [2, 6] was 0 n (%), the “Serious adverse event: Hypertension” value [2, 6] was 0 n (%) and the “Serious adverse event: Hypoalbuminaemia” value [2, 6] was 0 n (%). For the same molecule, the “Serious adverse event: Intestinal obstruction” value [2, 6] was 0 n (%), the “Serious adverse event: Jaundice” value [2, 6] was 0 n (%) and the “Serious adverse event: Lower gastrointestinal haemorrhage” value [2, 6] was 0 n (%). For the same molecule, the “Serious adverse event: Metabolic encephalopathy” value [2, 6] was 0 n (%), the “Serious adverse event: Oedema peripheral” value [2, 6] was 0 n (%) and the “Serious adverse event: Pleurisy” value [2, 6] was 0 n (%). For the same molecule, the “Serious adverse event: Pyrexia” value [2, 6] was 1 (0.7) n (%), the “Serious adverse event: Tumour lysis syndrome” value [2, 6] was 0 n (%) and the “Serious adverse events: Number of subjects with at least one event” value [2, 6] was 24 (16.3) n (%). For the same molecule, the “Incidence of SAEs: Small intestinal obstruction” value ([2]; most frequent SAE, summary table) was 5 (3.4) (%), the “Serious AEs” value ([2]; randomized treatment period) was 20.4% and the “Serious AEs, Treatment-related” value ([2]; randomized treatment period) was 5.4%. The “SAE with fatal outcome: Blood bilirubin increased” value [2, 7] was 1 (0.7) n (%), the “SAE with fatal outcome: Diarrhoea” value [2, 7] was 0 n (%) and the “SAE with fatal outcome: Dyspnoea” value [2, 7] was 1 (0.7) n (%). For the same molecule, the “SAE with fatal outcome: Intestinal perforation” value [2, 7] was 1 (0.7) n (%), the “SAE with fatal outcome: Tumor Lysis syndrome” value [2, 7] was 0 n (%) and the “SAEs with fatal outcome” value [2, 7] was 3 (2.0) n (%). For the same molecule, the “SAEs with fatal outcome reported in subjects with primary reason for death = Disease under Study” value [2, 7] was 3 (2.0) n (%), the Clinically significant myelosuppression [3] was “less than 10%” and the “grade 3 or 4 lymphopenia” value [3] was 9%. For the same molecule, the “grade 3 or 4 neutropenia” value [3] was 1%, the “grade 3 or 4 thrombocytopenia” value [3] was 2% and the “renal toxicities within the period of observation” value [3] was “no evidence of renal toxicities”. For the same molecule, the “Reason for End of Randomized Treatment Phase: Death” value ([4]; Full Analysis Set) was 4 (2.6) n (%), the “Reason for End of Randomized Treatment Phase: Progressive Disease” value ([4]; Full Analysis Set) was 42 (27.8) n (%) and the “Reason for End of Randomized Treatment Phase: Adverse Event” value ([4]; human, in vivo) was 8 (5.3) n (%). For the same molecule, the “Treatment discontinuation due to adverse event” value ([4]; human, in vivo) was 5.3%, the “discontinuation for progressive disease” value ([4]; randomized period) was 27.8% and the “risk reduction in likelihood of progression or death event” value (midgut carcinoid tumors; Lutathera versus 60 mg octreotide long-acting) was 79%. The “confirmed events (disease progressions RECIST 1.1 centrally assessed or deaths)” value (midgut carcinoid tumors) was 21 and the “median PFS” value (midgut carcinoid tumors) was “not yet been reached”.
